Results reported in PMC12422955.

Target: recombinant full-length NOE1–mScarlet-His (rat) (UniProt Q62609)
Test: SEC; FSEC, Superose 6 calibrated with mass markers; 5 nM full-length NOE1–mScarlet with 5–150 nM GluA4, or 1 nM with 1–100 nM CP-AMPARs; mScarlet fluorescence

Sequence of recombinant full-length NOE1–mScarlet-His (rat) (Q62609 25-485): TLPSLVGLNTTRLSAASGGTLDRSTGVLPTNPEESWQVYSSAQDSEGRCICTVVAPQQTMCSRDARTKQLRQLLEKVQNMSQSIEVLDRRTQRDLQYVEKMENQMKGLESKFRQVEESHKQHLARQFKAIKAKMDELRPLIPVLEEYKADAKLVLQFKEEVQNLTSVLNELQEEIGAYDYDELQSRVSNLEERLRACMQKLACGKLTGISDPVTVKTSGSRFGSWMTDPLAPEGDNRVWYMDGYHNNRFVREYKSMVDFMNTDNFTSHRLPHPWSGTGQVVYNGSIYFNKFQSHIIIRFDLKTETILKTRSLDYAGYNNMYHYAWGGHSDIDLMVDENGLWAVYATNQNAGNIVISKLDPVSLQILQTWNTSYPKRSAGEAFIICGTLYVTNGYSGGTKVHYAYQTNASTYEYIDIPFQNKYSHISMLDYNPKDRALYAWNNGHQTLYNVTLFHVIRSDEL

Substance: native GluA1-containing CP-AMPARs purified from rat cerebellum (from UniProt P19490 19-907; P19493 21-902) (complex)
- stoichiometry N (receptors per NOE1 tetramer): 2
